B1: #27in: anti-BAP42 sdAb, SEQ ID NO: 4 (antibody, V domains shown)
VL: ELVLTQTPSSVSAAVGGTVTINCQASQSVSNRLAWYQQKPGQPPKLLIYGASRLESGVPSRFRGSGSGTEFTLTISGMKAEDAATYYCQSCYYSVGVTFGAGTNVEIK

Legend:
[1] = system: in vitro model of the BBB (bEnd3 cells); assay: Transmigration of radiolabelled peptides across in vitro BBB model; type: in vitro ADME
Description: Using the same in vitro model of the BBB described above, peptides labelled with technetium and gallium were tested for the ability to cross endothelial barrier. For each peptide, bEnd3 cells cultured on “tissue culture inserts” were incubated with 5 ρCimL^−1-labelled peptide for different incubation times: 15 min, 5 h and 24 h. As a control, the model without cells was used (Control no cells) or (Filters) and compared to models with cells (BBB) or (Cells).
FIGS. 21A-21F show the percent activity of the radioisotope technetium-labelled peptides at the apex and base after 5 hours of incubation with the in vitro model described above, using the BBB-model or no cells (as a control); and values were obtained from two independent assays. […] Moreover, the results indicated promising candidates. Specifically, for each of pepH1 and pepH3, there was an overpass of 50% in the control, compared with only 20% in the presence of a cell barrier. The translocation of pepH2 was not observed in either the control nor in the BBB model.
Results for the incubations of 15 minutes, 5 hours, and 24 hours are shown together in FIGS. 22A-22F. That is, FIGS. 22A-22F show the percent activity of the radioisotope technetium-labelled peptides at the apex and base after 15 minutes, 5 hours, and 24 hours of incubation with the in vitro model described above, using the BBB-model or no cells (as a control); and values were obtained from two independent assays. Differences again were observed, confirming the integrity of the barrier, as well as identifying peptides that crossed the barrier. […] PepR′ thus was excluded from further tests.
(§1) Table 9 summarizes results regarding uptake (internalization) and cellular interaction, as well as transmigration across an in vitro model for BBB, for peptides labelled with technetium and gallium, after 15 minutes, 5 hours, and 24-hours of incubation, based on percent recovery of radiopeptide. The Table lists the peptides, providing each peptide's name, % BBB transmigration, % cellular interaction, and % internalized, each after […], 5 hours, and 24 hours of incubation.

[2] = Features of peptides: isoelectric point, charge; type: physicochemical; conditions: original peptide
From the text: Table 7 lists each peptide's name, isoelectric point (PI), charge (number of positive residues), calculated mass (in Da), and ion found; as well as the name, calculated mass, and found ion for the corresponding conjugate; and also retention times in HPLC and the partition coefficient (log Po/w). These values allowed the determination of the hydrophilic nature of peptides, where pepH1 and pepH4 were identified as the most hydrophilic peptides.

[3] = system: bEnd3 cells; assay: Uptake test: cellular interaction (acid wash) and internalization (lysate); type: cell-based
Description: In addition to testing models of BBB, an uptake test was performed to determine the internalizing ability of the candidate peptides. BEnd3 cells were cultured in 24 well plates. At each time point, the medium containing the peptide, which had not interacted with the cells, was collected. In the next step, the cells were washed with an acidic buffer that releases peptides more strongly bound to the cell membrane (sample acid wash). Finally, the cells were lysed to release internalized peptides and to quantify the activity inside the cells. Results are showing in FIGS. 23A-23E.
FIGS. 23A-23E show percent activity of the radioisotope technetium-labelled peptides in the media, wash buffer (acid wash) and lysate, after 15 minutes, 5 hours, and 24 hours of incubation with bEnd3 cells; and values were obtained from two independent assays. […] PepM′, as well as showing high transmigration (about 50%), also appeared to become internalized and accumulated within the cells (about 13% of radioactivity in the lysate).
as §1

[4] = system: bEnd3 cells; assay: MTT cell viability assay; type: cell-based; conditions: for effect on cell viability: 0.1-100 μM (pepM′ 0.1-50 μM), 24 hours; for cell death: concentration below 40 μM, peptide in DMSO
Description: To test possible toxicity of selected peptides to BBB cells, 5×10^4 bEnd3 cells were cultured in 96-well plates, at 100 μL/well, and incubated for 24 hours. The peptides then were added at concentrations of 0.1-100 μM, with the exception of pepM′ (which was added at concentrations of 0.1-50 μM). As a control providing 100% of viability, a well with serum-free media was included.
After 24 hours of incubation, a MTT assay was performed, which is a colorimetric assay for assessing cell metabolic activity. A MTT solution at 5 mg/mL in PBS was added to each well and incubated for 2 hours. After this period, the solution was removed and DMSO added to solubilize violet crystals formed. Absorbance was measured at 540 nm. The viability percentage [Absorbancepeptide-treated cells/Absorbanceuntreated-cells)*100] was calculated and IC50 values were calculated from three independent assays.
As FIGS. 24A-24E show, the selected peptides have no effect on cell viability, specifically, there was no observable nor measurable effect using the assay described.

[5] = Biodistribution of technetium-labelled peptides; type: in vivo, CD1 mice
Description: To evaluate the capacity to cross the BBB in vivo, the selected peptides, pepH1 and pepH3, were analyzed for biodistribution in CD1 mice. The peptides were labelled with technetium at a final concentration of 8.5×10^−5 M and diluted in PBS. CD1 mice were injected (iv injection, tail vein). The mice were sacrificed by cervical dislocation after 5 and 60 minutes of incubation. The tissues of interest were dissected and washed to remove excess blood, weighed, and measured for radioactivity. Technetium radioactivity of the different peptides was measured for different organs.
Initial results are presented in Table 11, where “% I.A. refers to the “% injected activity”, that is, the amount of radioactivity measured in a given organ compared to the total originally injected.
The biodistribution studies were repeated, using higher doses of each peptide, specifically, a one hundred fold increase, as well as using PepH2 as a negative control, and allowing incubation for 2 minutes and 60 minutes. Tissue biodistribution profile in percentage of injected radiopeptide activity per gram of tissue/organ was measured and results are presented in Table 12.

[6] = set-up: species or system CD1 mice; conditions: mouse, in vivo
Description: The different antibody-peptide constructs were used in biodistribution assays, and results compared with the biodistribution of the respective DEN2C peptides (pepH1, pepH2, pepH3, and pepM′, chemically synthesized). […] After expression and purification, the sdAbs and sdAb-peptide constructs were conjugated to technetium (^99Tc) and a biodistribution assay was performed, as previously described.
Tables 14-16 show the biodistribution of different anti-BAP42 sdAbs and constructs thereof with different peptides (“pepH3”).

[7] = 99mTc, 24 hours, listed as PepHM′

| Molecule | BBB transmigration ([1]; 99mTc, 24 hours) | Charge (number of positive residues) [2] | PI (isoelectric point) [2] | BBB transmigration ([1]; 99mTc, 0.25 hours) | BBB transmigration ([1]; 99mTc, 5 hours) | BBB transmigration ([1]; GaCl3, 0.25 hours) | BBB transmigration ([1]; GaCl3, 5 hours) | BBB transmigration ([1]; GaCl3, 24 hours) | Cellular interaction ([3]; 99mTc, 0.25 hours) | Internalization ([3]; 99mTc, 0.25 hours) | Cellular interaction ([3]; 99mTc, 5 hours) | Internalization ([3]; 99mTc, 5 hours) | Cellular interaction ([3]; 99mTc, 24 hours) | Cellular interaction ([3]; GaCl3, 0.25 hours) | Internalization ([3]; GaCl3, 0.25 hours) | Cellular interaction ([3]; GaCl3, 5 hours) | Internalization ([3]; GaCl3, 5 hours) | Cellular interaction ([3]; GaCl3, 24 hours) | Internalization ([3]; GaCl3, 24 hours) | effect on cell viability [4] | also measured |
| --- | --- | --- | --- | --- | --- | --- | --- | --- | --- | --- | --- | --- | --- | --- | --- | --- | --- | --- | --- | --- | --- |
| KEIGRMLNILNRRRR [PepR′] | more limited in crossing the barrier | – | – | – | – | – | – | – | – | – | – | – | – | – | – | – | – | – | – | – | – |
| KLFMALVAFLRFLT [PepH2] | 9.32 ± 2.5% | 2 | 11 | 0.79 ± 0.7% | 5.21 ± 3.3% | 0.33 ± 0.1% | 4.06 ± 0.3% | 13.51 ± 0.7% | 1.60 ± 0.3% | 2.15 ± 1.2% | 5.95 ± 3.0% | 24.8 ± 2.0% | 2.20 ± 0.4% | 0.77 ± 0.1% | 0.84 ± 0.1% | 1.48 ± 0.1% | 6.97 ± 0.3% | 1.16 ± 0.1% | 9.24 ± 1.2% | small decrease in viability | BBB transmigration ([1]; 99mTc, 5 hours, listed as pepH2): not observed; BBB transmigration ([1]; 99mTc, 24 hours, listed as pepH2): 9%; cell death [4]: no cell death; radioactivity levels in the brain ([5]; 80 μg, after 60 minutes): 0.2%; radioactivity in the brain ([5]; 140 μg (pepH1, pepH3) or 80 μg (pepH2), 2 min): 0.37%; excreted ([5]; 140 μg (pepH1, pepH3) or 80 μg (pepH2), after 60 min): 12.7%; brain uptake ([5]; after 2 min): rapid brain uptake; brain washout ([5]; mouse, in vivo): brain washout was slower |
| LVAFLRFLTIPPTAGILKRW [PepM′] | about 50% | 3 | 12.0 | – | – | – | – | 47.31 ± 1.2% | – | – | – | – | 8.32 ± 1.9% | – | – | – | – | 2.23 ± 0.1% | 3.68 ± 0.0% | small decrease in viability | BBB transmigration [1, 7]: 53.47 ± 3.1%; BBB transmigration ([1]; 99mTc, 24 hours, listed as pepM): ~50%; Internalization ([3]; 99mTc, 24 hours): about 13%; Internalization [3, 7]: 12.81 ± 2.0%; cell death [4]: no cell death |
| KSKAINVLRGFRKEIGRMLNILN [PepH4] | – | 6 | 11.7 | 3.30 ± 0.5% | 30.08 ± 1.6% | 0.93 ± 0.1% | 16.60 ± 1.1% | 60.79 ± 2.6% | 2.06 ± 0.3% | 0.17 ± 0.0% | 10.10 ± 0.1% | 1.53 ± 0.0% | 10.23 ± 0.8% | 4.06 ± 0.2% | 0.26 ± 0.0% | 3.00 ± 0.1% | 0.78 ± 0.0% | 3.82 ± 0.1% | 1.55 ± 0.1% | – | where the radiopeptide is found in the uptake test (media, acid wash, lysate) ([3]; 99mTc): mainly remained in the incubation medium; Internalization ([3]; 99mTc, 24 hours): 2.83 ± 0.2% |
| B1 | – | – | – | – | – | – | – | – | – | – | – | – | – | – | – | – | – | – | – | – | factor by which washout from the brain is slowed on linking to delivery peptide pepH3 [6]: about 2; factor of increase of presence in the brain on linking to delivery peptide pepH3 [6]: about 6 |
